# B1: HMGB1 B-box domain (domain or fragment, human)
# chain: MARIDPNAPKRPPSAFFLFCSEYRPKIKGEHPGLSIGDVAKKLGEMWNNTAADDKQPYEKKAAKLKEKYEKDIAAYRAKGKPDAAKKGVV
# notes: initiator methionine followed by the triplet alanine-arginine-isoleucine (ARI), inserted through the forward primer for better expression; HMGB1 (high mobility group box 1), human, B-box domain, cloned from the human HMGB1 cDNA; Numbers count on: the construct (Cys19 = Cys106 of full-length HMGB1; Trp46); By the reverse primer, the XhoI site adds LE between V176 and the SGS-His8 tag; The DLS …
# Target: the molecule itself
# Experiment: dynamic light scattering; as-prepared, unfiltered B-box, 30 μM, 25 mM Tris-HCl pH 6.9, 150 mM NaCl, 25 °C, backscattering mode; the retentate of the 30 kDa filter was also measured (Figure S6)
protein,measurement,value
B1,stoichiometry N,~8

# Reference: paper PMC12451656, “HMGB1 B‑Box Domain Associates Promote Protein–Polyelectrolyte Interactions” (The Journal of Physical Chemistry. B, 2025)
